B1: Gremlin-2 (Mus musculus), O88273 (parent)
chain: MFWKLSLTLLLVAVLVKVAETRKNRPAGAIPSPYKDGSSNNSERWHHQIKEVLASSQEALVVTERKYLKSDWCKTQPLRQTVSEEGCRSRTILNRFCYGQCNSFYIPRHVKKEEDSFQSCAFCKPQRVTSVIVELECPGLDPPFRIKKIQKVKHCRCMSVNLSDSDKQ
partner: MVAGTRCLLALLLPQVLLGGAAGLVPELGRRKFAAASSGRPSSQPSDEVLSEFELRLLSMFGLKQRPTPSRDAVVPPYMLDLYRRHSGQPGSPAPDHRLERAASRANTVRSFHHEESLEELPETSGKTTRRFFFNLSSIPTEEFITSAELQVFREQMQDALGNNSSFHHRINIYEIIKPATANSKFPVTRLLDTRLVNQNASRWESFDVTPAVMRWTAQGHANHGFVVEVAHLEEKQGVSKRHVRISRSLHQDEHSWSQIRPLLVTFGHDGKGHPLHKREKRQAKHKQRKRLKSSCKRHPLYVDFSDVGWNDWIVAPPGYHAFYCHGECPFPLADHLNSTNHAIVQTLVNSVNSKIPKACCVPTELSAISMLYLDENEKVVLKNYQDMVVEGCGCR
B2: Gremlin-2 (Mus musculus), O88273 (parent)
chain: B1 chain
partner: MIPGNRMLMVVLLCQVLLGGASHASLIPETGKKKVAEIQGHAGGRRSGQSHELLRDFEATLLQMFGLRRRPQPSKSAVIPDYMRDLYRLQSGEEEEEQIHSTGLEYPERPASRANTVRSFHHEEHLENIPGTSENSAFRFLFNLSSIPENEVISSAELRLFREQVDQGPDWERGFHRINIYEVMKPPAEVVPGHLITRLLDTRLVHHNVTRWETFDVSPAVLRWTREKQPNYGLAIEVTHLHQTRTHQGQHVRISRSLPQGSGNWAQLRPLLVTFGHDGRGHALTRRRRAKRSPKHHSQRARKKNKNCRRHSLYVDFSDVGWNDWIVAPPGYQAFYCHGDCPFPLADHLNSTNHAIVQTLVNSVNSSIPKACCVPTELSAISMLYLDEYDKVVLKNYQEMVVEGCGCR

Variants of: B1
Conditions: with bmp2_human BMP2, P12643

Row | effect of a mutation on the interaction | Variant
1 | decreasing interaction strength | MFWKLSLTLLLVAVLVKVAETRKNRPAGAIPSPYKDGSSNNSERWHHQIKEVLASSQEALVVTERKYLKSDACKTQPLRQTVSEEGCRSRTILNRFCYGQCNSFYIPRHVKKEEDSFQSCAFCKPQRVTSVIVELECPGLDPPFRIKKIQKVKHCRCMSVNLSDSDKQ
2 | decreasing interaction strength | MFWKLSLTLLLVAVLVKVAETRKNRPAGAIPSPYKDGSSNNSERWHHQIKEVLASSQEALVVTERKYLKSDWCKTQPLRQTVSEEGCRSRTILNRFCYGQCNSAYIPRHVKKEEDSFQSCAFCKPQRVTSVIVELECPGLDPPFRIKKIQKVKHCRCMSVNLSDSDKQ
3 | decreasing interaction strength | MFWKLSLTLLLVAVLVKVAETRKNRPAGAIPSPYKDGSSNNSERWHHQIKEVLASSQEALVVTERKYLKSDWCKTQPLRQTVSEEGCRSRTILNRFCYGQCNSFYIPRHVKKEEDSAQSCAFCKPQRVTSVIVELECPGLDPPFRIKKIQKVKHCRCMSVNLSDSDKQ
4 | decreasing interaction strength | MFWKLSLTLLLVAVLVKVAETRKNRPAGAIPSPYKDGSSNNSERWHHQIKEVLASSQEALVVTERKYLKSDWCKTQPLRQTVSEEGCRSRTILNRFCAGQCNSFYIPRHVKKEEDSFQSCAFCKPQRVTSVIVELECPGLDPPFRIKKIQKVKHCRCMSVNLSDSDKQ
5 | decreasing interaction strength | MFWKLSLTLLLVAVLVKVAETRKNRPAGAIPSPYKDGSSNNSERWHHQIKEVLASSQEALVVTERKYLKSDWCKTQPLRQTVSEEGCRSRTILNRFCYGQCNSFAIPRHVKKEEDSFQSCAFCKPQRVTSVIVELECPGLDPPFRIKKIQKVKHCRCMSVNLSDSDKQ

Variants of: B2
Conditions: with bmp4_human BMP4, P12644

Row | effect of a mutation on the interaction | Variant
6 | decreasing interaction strength | MFWKLSLTLLLVAVLVKVAETRKNRPAGAIPSPYKDGSSNNSERWHHQIKEVLASSQEALVVTERKYLKSDWCKTQPLRQTVSEEGCRSRTILNRFCYGQCNSAYIPRHVKKEEDSFQSCAFCKPQRVTSVIVELECPGLDPPFRIKKIQKVKHCRCMSVNLSDSDKQ
7 | decreasing interaction strength | MFWKLSLTLLLVAVLVKVAETRKNRPAGAIPSPYKDGSSNNSERWHHQIKEVLASSQEALVVTERKYLKSDWCKTQPLRQTVSEEGCRSRTILNRFCYGQCNSFAIPRHVKKEEDSFQSCAFCKPQRVTSVIVELECPGLDPPFRIKKIQKVKHCRCMSVNLSDSDKQ
8 | decreasing interaction strength | MFWKLSLTLLLVAVLVKVAETRKNRPAGAIPSPYKDGSSNNSERWHHQIKEVLASSQEALVVTERKYLKSDWCKTQPLRQTVSEEGCRSRTILNRFCYGQCNSFYIPRHVKKEEDSAQSCAFCKPQRVTSVIVELECPGLDPPFRIKKIQKVKHCRCMSVNLSDSDKQ
9 | decreasing interaction strength | MFWKLSLTLLLVAVLVKVAETRKNRPAGAIPSPYKDGSSNNSERWHHQIKEVLASSQEALVVTERKYLKSDACKTQPLRQTVSEEGCRSRTILNRFCYGQCNSFYIPRHVKKEEDSFQSCAFCKPQRVTSVIVELECPGLDPPFRIKKIQKVKHCRCMSVNLSDSDKQ
10 | decreasing interaction strength | MFWKLSLTLLLVAVLVKVAETRKNRPAGAIPSPYKDGSSNNSERWHHQIKEVLASSQEALVVTERKYLKSDWCKTQPLRQTVSEEGCRSRTILNRFCAGQCNSFYIPRHVKKEEDSFQSCAFCKPQRVTSVIVELECPGLDPPFRIKKIQKVKHCRCMSVNLSDSDKQ
